Measurements taken from doi:10.1101/2023.02.03.527063 (bioRxiv, 2023).

Target: T1, FLAG-tagged PXR K109A (human, UniProt O75469 1-434, K109A)
T1 sequence (looked up): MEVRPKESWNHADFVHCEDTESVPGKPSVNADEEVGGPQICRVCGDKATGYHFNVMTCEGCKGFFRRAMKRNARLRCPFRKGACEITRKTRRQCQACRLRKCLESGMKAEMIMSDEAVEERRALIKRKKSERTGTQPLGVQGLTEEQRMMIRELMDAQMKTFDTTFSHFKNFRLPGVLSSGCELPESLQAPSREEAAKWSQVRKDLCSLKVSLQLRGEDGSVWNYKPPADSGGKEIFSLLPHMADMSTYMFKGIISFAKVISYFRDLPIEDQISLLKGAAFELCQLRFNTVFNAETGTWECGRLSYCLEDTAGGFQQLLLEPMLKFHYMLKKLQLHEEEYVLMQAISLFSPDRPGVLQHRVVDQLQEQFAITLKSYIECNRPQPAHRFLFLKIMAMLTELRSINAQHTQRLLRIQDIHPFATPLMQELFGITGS
Assay: co-IP

B1: His-tagged BRD9 (natural protein, UniProt Q9H8M2 1-597, looked up)
chain: MGKKHKKHKAEWRSSYEDYADKPLEKPLKLVLKVGGSEVTELSGSGHDSSYYDDRSDHERERHKEKKKKKKKKSEKEKHLDDEERRKRKEEKKRKREREHCDTEGEADDFDPGKKVEVEPPPDRPVRACRTQPAENESTPIQQLLEHFLRQLQRKDPHGFFAFPVTDAIAPGYSMIIKHPMDFGTMKDKIVANEYKSVTEFKADFKLMCDNAMTYNRPDTVYYKLAKKILHAGFKMMSKQAALLGNEDTAVEEPVPEVVPVQVETAKKSKKPSREVISCMFEPEGNACSLTDSTAEEHVLALVEHAADEARDRINRFLPGGKMGYLKRNGDGSLLYSVVNTAEPDADEEETHPVDLSSLSSKLLPGFTTLGFKDERRNKVTFLSSATTALSMQNNSVFGDLKSDEMELLYSAYGDETGVQCALSLQEFVKDAGSYSKKVVDDLLDQITGGDHSRTLFQLKQRRNVPMKPPDEAKVGDTLGDSSSSVLEFMSMKSYPDVSVDISMLSSLGKVKKELDPDDSHLNLDETTKLLQDLHEAQAERGGSRPSSNLSSLSNASERDQHHLGSPSRLSVGEQPDVTHDPYEFLQSPEPAASAKT
  interaction relative to that between FLAG-PXR and BRD9-His: 0.3 fold
